Here are results for one molecule from patent publication US20240101646A1 (VANDERBILT UNIVERSITY, published 2024).

The target of this assay is T1, SARS-CoV-2 NTD (SARS-CoV-2, UniProt P0DTC2 14-305).
T1 construct: domain: NTD
In words: ELISA, antigen plated at 2 µg/mL (FIG. 12A). A general note: ELISA stands for enzyme-linked immunosorbent assay.

B1: antibody 5317-10 (antibody, V domains shown)
VH: EVQLVQSGAEVKKPGESLTISCKASGYRFTSNWITWVRQMPGKGLEWMGRIDPDDPYSNSSPSFQGHATLSLDKAINTAYLHWSSLKASDTAMYYCARVNRVGDGPDFWGQGTLVTVSS
VL: DIVMTQSPLSLPVTPGEPASISCRSSQSLLFGNGYTYLNWYLQKPGQSPQLLIYLGSNRASGVPDRFSVSGSGTDFTLIISRVEAEDVGVYFCMQALQTPWTFGQGTKVEIK
Consider B1, for which the binding result was “no binding”.
